Patent US20040023887A1
Blank lines part the entries; values can stand above or below the binder they belong to. No end group written: not given here.

Legend:
[1] = molecular target: soluble human insulin receptor-immunoglobulin heavy chain chimera (human) (UniProt P06213); test: phage ELISA
[2] = molecular target: Insulin receptor prepared according to Bass et al., 1996 (soluble IR-immunoglobulin chimera) (human) (UniProt P06213); test: phage ELISA, receptor coated on plate; A405 over non-fat milk
[3] = molecular target: Insulin receptor prepared according to Bass et al., 1996 (soluble IR-immunoglobulin chimera) (human) (UniProt P06213); test: phage ELISA; IR ratio divided by IGF-1R ratio
[4] = molecular target: soluble IGF-1R (recombinant human IGF-1R extracellular domain, R&D Systems Cat. # 391-GR/CF) (human), P08069; test: phage ELISA
[5] = molecular target: soluble human insulin receptor-immunoglobulin heavy chain chimera (human), P06213; test: phage ELISA
[6] = molecular target: His-tagged soluble recombinant human IGF-1R (human), P08069; test: AlphaScreen competition versus IGF-1 (b-hIGF-1, srhIGF-1R-his)

Binder: RGAVAGFHDQFYDWFDRQVSRVHKFG [H2CA-4-H9-IGFR]
IR/IGF-1R ratio comparison [1]: 0.3
ratio over background [1]: 1.9

Binder: AGSVTSFYDAMEQLVATGTSA [20E2A-3-A4-IGFR]
ratio over background (IR) (fold over background) [2]: 1.8
IR/IGF-1R ratio comparison [3]: 0.7

Binder: YRGMLVLGRISGGAGKAASERPARIGQKVSAVNFYDWFV [A6L-0-E3-IR]
IR/IGF-1R ratio comparison [1]: 0.1
ratio over background [1]: 2

Binder: CCTTEMVVMDARDDPFYHKLSELVTGG [B6Hα-1-B5-IR]
IR/IGF-1R ratio comparison [1]: 0
ratio over background [1]: 1

The remaining lines, values ahead:

IR/IGF-1R ratio comparison [1]: 0.3
ratio over background [1]: 1.9
Binder: SQAGSAFYAWFDQVLRTVHSA [20E2Bβ-4-G6-IR]

IR/IGF-1R ratio comparison [1]: 0.1
ratio over background [1]: 1.9
Binder: QPDHSYFYSLLQELVGSEERL [20E2B-4-F9-IGFR]

IGF-1R/IR ratio comparison [4]: 9.4
ratio over background [4]: 10.6
IR/IGF-1R ratio comparison [5]: 0.1
ratio over background [5]: 1.1
B1: 20E2B-2-B11-IGFR (peptide)
peptide: VVTPVNFYRALEALVRGXRLG
modifications: not fully specified; printed as VVTPVNFYRALEALVRG.RLG; X: residue not identified in the source

Affin. [6]: 0.19 µM
Binder: TFYSCLASLLTGTPQPNRGPWERCRKK (modifications not checked) [RP6KK]
